Assay results from US20260242478A1 (published 2026).
Where no end group is shown, it is not given here.

B1: Phage-785 (peptide)
peptide: YCEGHTSEYMNKCL
notes: not shown: fused to the pIII filament protein of the bacteriophage
B2: Phage-777 (peptide)
peptide: YCEGHSLEYMAKCL
notes: as for B1
B3: Phage-787 (peptide)
peptide: YCDGHLAMYMDKCL
notes: as for B1
B4: Phage-781 (peptide)
peptide: YCEGHSPLYMSKCL
notes: as for B1
B5: Phage-784 (peptide)
peptide: YCDGHTGVYFYKCL
notes: as for B1
B6: Phage-783 (peptide)
peptide: YCDGHSALYMSKCL
notes: as for B1
B7: Phage-778 (peptide)
peptide: YCEGHSYEYMWKCL
notes: as for B1
B8: Phage-776 (peptide)
peptide: YCDGHSWEYIQKCL
notes: Position 10 is printed as '--' and was read as unchanged (I); not shown: fused to the pIII filament protein of the bacteriophage
B9: Phage-782 (peptide)
peptide: YCEGHSWEYIGKCL
notes: as for B1
B10: Phage-779 (peptide)
peptide: YCEGHLPEYMMKCL
notes: as for B1
B11: Phage-775 (peptide)
peptide: YCEGHMSEYMAKCL
notes: as for B1
B12: Phage-786 (peptide)
peptide: YCEGHRSEYMAKCL
notes: as for B1
B13: Phage-780 (peptide)
peptide: YCDGHLPEYMRKCL
notes: as for B1
B14: Phage-774 (peptide)
peptide: YCEGHLSEYMSKCL
notes: Tested as clonal phage supernatant
B15: Phage-773 (peptide)
peptide: YCEGHVAEYMLKCL
notes: as for B14
B16: Phage-806 (peptide)
peptide: YCDGHSAEYMEKCI
modifications: cysteine pairing not given here; also: displayed on phage by fusion to pIII, pIII and linker sequence not given here
notes: Clonal phage of the Peptide-87 library; not shown: fused to the pIII filament protein of the bacteriophage
B17: Phage-809 (peptide)
peptide: YCDGHAREYMTKCL
modifications: cysteine pairing not given here; also: displayed on phage by fusion to pIII, pIII and linker sequence not given here
notes: as for B16
B18: Phage-803 (peptide)
peptide: YCEGHAAEYMWKCL
modifications: cysteine pairing not given here; also: displayed on phage by fusion to pIII, pIII and linker sequence not given here
notes: as for B16
B19: Phage-804 (peptide)
peptide: YCEGHSAEYIFKCL
modifications: cysteine pairing not given here; also: displayed on phage by fusion to pIII, pIII and linker sequence not given here
notes: as for B16
B20: Phage-807 (peptide)
peptide: YCDGHLPLYMHKCL
modifications: cysteine pairing not given here; also: displayed on phage by fusion to pIII, pIII and linker sequence not given here
notes: as for B16
B21: Phage-805 (peptide)
peptide: YCEGHSPMYMQKCM
modifications: cysteine pairing not given here; also: displayed on phage by fusion to pIII, pIII and linker sequence not given here
notes: as for B16
B22: Phage-802 (peptide)
peptide: YCDGHSSEYIVKCL
modifications: cysteine pairing not given here; also: displayed on phage by fusion to pIII, pIII and linker sequence not given here
notes: as for B16
B23: Phage-801 (peptide)
peptide: YCDGHLPMYFAKCM
modifications: cysteine pairing not given here; also: displayed on phage by fusion to pIII, pIII and linker sequence not given here
notes: as for B16
B24: Phage-808 (peptide)
peptide: YCEGHAPQYLNKCL
modifications: cysteine pairing not given here; also: displayed on phage by fusion to pIII, pIII and linker sequence not given here
notes: as for B16
B25: Phage-788 (peptide)
peptide: YCDGHMPEYLAKCL
B26: Phage-792 (peptide)
peptide: YCDGHSAAYIMKCL
B27: Phage-789 (peptide)
peptide: YCEGHAAEYMSKCL
B28: Phage-797 (peptide)
peptide: YCAGHAPEYMFKCM
B29: Phage-793 (peptide)
peptide: YCDGHSLQYLGKCL
B30: Phage-796 (peptide)
peptide: YCEGHLQIYMSKCL
B31: Phage-800 (peptide)
peptide: YCDGHSPAYMAKCL
B32: Phage-794 (peptide)
peptide: YCEGHSQEYMQKCL
B33: Phage-798 (peptide)
peptide: YCEGHRPEYMAKCL
B34: Phage-791 (peptide)
peptide: YCDGHSWAYMWKCL
B35: Phage-790 (peptide)
peptide: YCAGHSSEYMWKCL
B36: Phage-799 (peptide)
peptide: YCEGHLPEYMRKCL
B37: Phage-795 (peptide)
peptide: YCAGHLPEYLSKCL

What follows are binders tested against T1, Anti-CD28 Fab (SEQ ID NOs: 696, 697) (assay: phage ELISA on captured anti-CD28 Fab; competitor CD28 antigen pre-incubated in the wells;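 note: clonal phage supernatants added to wells preloaded with CD28 antigen in blocking buffer, control wells buffer only, bound phage read via HRP-linked anti-M13 antibody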).
T1 construct: Biotinylated Fab captured on neutravidin coated plates in the phage ELISA
T1 sequence (VH, as listed by the source, chain 1 of 2): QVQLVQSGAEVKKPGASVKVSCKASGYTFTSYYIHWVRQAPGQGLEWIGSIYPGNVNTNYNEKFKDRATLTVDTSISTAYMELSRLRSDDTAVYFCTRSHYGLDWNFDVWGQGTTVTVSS
T1 sequence (VL, as listed by the source, chain 2 of 2): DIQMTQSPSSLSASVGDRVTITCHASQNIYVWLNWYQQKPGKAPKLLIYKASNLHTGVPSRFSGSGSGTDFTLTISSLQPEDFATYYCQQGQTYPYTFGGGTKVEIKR
Experimental: (§1) After panning, phage infected bacteria were plated out and colonies picked into 96 well blocks. Clonal phage was then amplified and separated from bacterial cells via centrifugation.
(§2) Clonal phage were harvested as crude supematants and screened via standard ELISAs. […] Prior to the addition of clonal phage, wells were incubated with blocking buffer and CD28 antigen or blocking buffer alone. Without washing or aspirating, clonal phage supematants were then added to the wells and incubated for a short time. Wells were then washed followed by detection of bound phage using a horse radish conjugated anti-M13 antibody. Clonal phage of interest were then sent for sequence analysis.

| Binder | Anti-CD28 Fab signal in the presence of CD28 (phage binding ELISA) |
| --- | --- |
| B1 | 0.06 |
| B2 | 0.08 |
| B3 | 0.08 |
| B4 | 0.09 |
| B5 | 0.08 |
| B6 | 0.08 |
| B7 | 0.08 |
| B8 | 0.07 |
| B9 | 0.07 |
| B10 | 0.27 |
| B11 | 0.11 |
| B12 | 0.06 |
| B13 | 0.08 |

What follows are binders tested against T2, Anti-CD28 Fab (SEQ ID NOs: 696, 697) (assay: phage ELISA on anti-CD28 Fab pre-incubated with CD28 antigen as competitor, anti-M13 HRP detection).
T2 construct: In the phage ELISA the Fab was biotinylated and captured on neutravidin coated plates
T2 sequence (VH, as listed by the source, chain 1 of 2): as the sequence (VH, as listed by the source, chain 1 of 2) above
T2 sequence (VL, as listed by the source, chain 2 of 2): as the sequence (VL, as listed by the source, chain 2 of 2) above

| Binder | Phage binding ELISA, Anti-CD28 Fab signal in the presence of CD28 |
| --- | --- |
| B14 | 0.09 |
| B15 | 0.05 |

The binders below were run against T3, Anti-CD28 Fab (SEQ ID NOs: 696, 697) (assay: phage binding ELISA; Fab on plate pre-incubated with CD28 antigen as competitor, anti-M13 HRP detection;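 note: crude clonal phage supernatants screened by ELISA, with comparison wells pre-incubated in blocking buffer only, lacking CD28 antigen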).
T3 construct: Biotinylated and captured on neutravidin coated plates in the phage ELISA
T3 sequence (VH, as listed by the source, chain 1 of 2): as the sequence (VH, as listed by the source, chain 1 of 2) above
T3 sequence (VL, as listed by the source, chain 2 of 2): as the sequence (VL, as listed by the source, chain 2 of 2) above
Experimental: as §1, §2

| Binder | Anti-CD28 Fab signal in the presence of CD28 |
| --- | --- |
| B16 | 0.07 |
| B17 | 0.06 |
| B18 | 0.07 |
| B19 | 0.05 |
| B20 | 0.07 |
| B21 | 0.06 |
| B22 | 0.06 |
| B23 | 0.06 |
| B24 | 0.08 |

The binders below were run against T3, Anti-CD28 Fab (SEQ ID NOs: 696, 697) (assay: phage binding ELISA; biotinylated Fab on neutravidin plate, clonal phage supernatant, anti-M13 HRP detection;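 note: phage from clones picked after panning, added to wells pre-incubated with blocking buffer with or without CD28 antigen, then briefly incubated and washed before detection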).

| Binder | Anti-CD28 Fab (SEQ ID NOs: 696, 697) signal |
| --- | --- |
| B16 | 1.83 |
| B17 | 1.82 |
| B18 | 1.83 |
| B19 | 1.83 |
| B20 | 1.82 |
| B21 | 1.83 |
| B22 | 1.83 |
| B23 | 1.83 |
| B24 | 1.82 |

The binders below were run against T1, Anti-CD28 Fab (SEQ ID NOs: 696, 697) (assay: phage ELISA; biotinylated anti-CD28 Fab on neutravidin plate, bound phage detected with anti-M13 HRP antibody).
Experimental: as §1, §2

| Binder | Anti-CD28 Fab signal (phage binding ELISA) |
| --- | --- |
| B1 | 1.87 |
| B2 | 1.88 |
| B3 | 1.86 |
| B4 | 1.87 |
| B5 | 1.87 |
| B6 | 1.87 |
| B7 | 1.88 |
| B8 | 1.88 |
| B9 | 1.87 |
| B10 | 1.88 |
| B11 | 1.88 |
| B12 | 1.86 |
| B13 | 1.88 |

These binders were tested against T2, Anti-CD28 Fab (SEQ ID NOs: 696, 697) (assay: phage ELISA; biotinylated anti-CD28 Fab on neutravidin plate, clonal phage supernatant, anti-M13 HRP detection;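 note: crude supernatants of single phage clones picked after panning were screened for binding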).

| Binder | Phage binding ELISA, Anti-CD28 Fab signal |
| --- | --- |
| B14 | 1.88 |
| B15 | 1.88 |

The binders below were run against Anti-CD28 Fab (SEQ ID NOs: 696, 697) (assay: phage binding ELISA; anti-CD28 Fab on plate pre-incubated with CD28 antigen as competitor, anti-M13 HRP detection).
Target sequence in this assay (VH, as listed by the source, chain 1 of 2): as the sequence (VH, as listed by the source, chain 1 of 2) above
Target sequence in this assay (VL, as listed by the source, chain 2 of 2): as the sequence (VL, as listed by the source, chain 2 of 2) above
Experimental: as §1, §2

| Binder | Anti-CD28 Fab signal in the presence of CD28 (phage binding ELISA) |
| --- | --- |
| B25 | 0.07 |
| B26 | 0.09 |
| B27 | 0.07 |
| B28 | 0.06 |
| B29 | 0.09 |
| B30 | 0.14 |
| B31 | 0.1 |
| B32 | 0.05 |
| B33 | 0.07 |
| B34 | 0.13 |
| B35 | 0.07 |
| B36 | 0.06 |
| B37 | 0.07 |

The binders below were run against Anti-CD28 Fab (SEQ ID NOs: 696, 697) (assay: phage binding ELISA; biotinylated anti-CD28 Fab on neutravidin plate, clonal phage supernatant, anti-M13 HRP detection).
Target sequence in this assay (VH, as listed by the source, chain 1 of 2): as the sequence (VH, as listed by the source, chain 1 of 2) above
Target sequence in this assay (VL, as listed by the source, chain 2 of 2): as the sequence (VL, as listed by the source, chain 2 of 2) above
Experimental: as §1, §2

| Binder | Anti-CD28 Fab signal (phage binding ELISA) |
| --- | --- |
| B25 | 1.86 |
| B26 | 1.84 |
| B27 | 1.86 |
| B28 | 1.83 |
| B29 | 1.84 |
| B30 | 1.84 |
| B31 | 1.83 |
| B32 | 1.84 |
| B33 | 1.83 |
| B34 | 1.85 |
| B35 | 1.85 |
| B36 | 1.83 |
| B37 | 1.84 |
